Binding result and EC50 data for eight molecules are collected here from patent publication US20220348651A1 (Novartis, published 2022).

For one assay, the target named is T1, ENTPD3 of H520 cells (UniProt O75355 1-529, limits assumed).
T1 construct: whole, on cells
T1 sequence (looked up): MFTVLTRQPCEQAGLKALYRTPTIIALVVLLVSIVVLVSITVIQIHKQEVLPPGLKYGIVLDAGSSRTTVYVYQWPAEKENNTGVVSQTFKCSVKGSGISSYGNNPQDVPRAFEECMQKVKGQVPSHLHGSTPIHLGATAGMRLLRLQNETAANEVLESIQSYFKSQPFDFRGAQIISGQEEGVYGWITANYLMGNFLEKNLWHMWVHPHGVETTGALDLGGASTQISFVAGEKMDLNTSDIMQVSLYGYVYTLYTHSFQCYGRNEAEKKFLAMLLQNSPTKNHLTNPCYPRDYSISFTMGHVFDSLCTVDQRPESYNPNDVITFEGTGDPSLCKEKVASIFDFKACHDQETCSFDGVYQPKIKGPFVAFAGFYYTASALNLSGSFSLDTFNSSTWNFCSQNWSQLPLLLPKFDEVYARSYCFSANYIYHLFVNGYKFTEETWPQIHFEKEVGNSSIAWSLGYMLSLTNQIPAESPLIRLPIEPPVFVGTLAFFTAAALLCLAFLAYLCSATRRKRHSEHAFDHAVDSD
As to the kind of experiment: flow cytometry, H520 cells. A general note: Flow cytometry measures light scatter and fluorescence of single cells or particles in a stream.

The target of a further assay is T2, ENTPD8 of H520 cells (UniProt Q5MY95 1-495, limits assumed).
T2 construct: whole, on cells
T2 sequence (looked up): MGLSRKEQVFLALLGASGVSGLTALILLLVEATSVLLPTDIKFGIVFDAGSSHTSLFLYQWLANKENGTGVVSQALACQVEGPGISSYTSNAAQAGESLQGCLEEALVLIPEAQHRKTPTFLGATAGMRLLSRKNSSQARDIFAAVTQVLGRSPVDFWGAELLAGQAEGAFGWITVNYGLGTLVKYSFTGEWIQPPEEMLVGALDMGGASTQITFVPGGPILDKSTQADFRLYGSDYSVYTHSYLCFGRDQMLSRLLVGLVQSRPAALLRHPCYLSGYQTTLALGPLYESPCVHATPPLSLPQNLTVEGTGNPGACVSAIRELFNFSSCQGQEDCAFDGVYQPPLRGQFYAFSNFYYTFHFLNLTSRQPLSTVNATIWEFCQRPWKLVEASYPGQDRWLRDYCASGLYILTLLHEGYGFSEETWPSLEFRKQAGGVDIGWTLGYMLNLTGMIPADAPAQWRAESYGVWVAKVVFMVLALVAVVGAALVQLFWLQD
As to the kind of experiment: flow cytometry, H520 cells.

The target in assay [1] is T3, cyno ENTPD2 expressed on NIH/3T3 cells (cynomolgus macaque, UniProt Q9Y5L3 1-495 (human entry)).
T3 construct: also called NIH3T3 cynoENTPD2; Cyno ENTPD2 NIH/3T3
T3 chain: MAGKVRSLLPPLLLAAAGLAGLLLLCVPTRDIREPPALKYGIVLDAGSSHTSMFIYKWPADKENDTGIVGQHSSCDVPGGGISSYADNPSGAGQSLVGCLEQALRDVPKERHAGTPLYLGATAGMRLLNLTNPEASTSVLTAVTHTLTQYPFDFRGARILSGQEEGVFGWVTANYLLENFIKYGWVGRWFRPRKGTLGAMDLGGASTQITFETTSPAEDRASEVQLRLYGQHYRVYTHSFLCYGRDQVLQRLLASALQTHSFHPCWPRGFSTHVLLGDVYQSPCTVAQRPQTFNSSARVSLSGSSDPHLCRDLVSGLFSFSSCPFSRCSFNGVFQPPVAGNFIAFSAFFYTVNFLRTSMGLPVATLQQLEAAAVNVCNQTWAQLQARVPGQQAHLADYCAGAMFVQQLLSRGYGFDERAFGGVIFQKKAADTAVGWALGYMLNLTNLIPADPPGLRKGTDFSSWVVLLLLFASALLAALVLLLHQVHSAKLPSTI
Kind of assay: flow cytometry, NIH3T3 cyno ENTPD2 cells.

Assay [2] concerns the target T4, human ENTPD2 expressed on cells (human, UniProt Q9Y5L3 1-495).
T4 construct: full-length human ENTPD2 on engineered cells; also called NIH3T3 humanENTPD2; NIH/3T3-hENTPD2
T4 sequence: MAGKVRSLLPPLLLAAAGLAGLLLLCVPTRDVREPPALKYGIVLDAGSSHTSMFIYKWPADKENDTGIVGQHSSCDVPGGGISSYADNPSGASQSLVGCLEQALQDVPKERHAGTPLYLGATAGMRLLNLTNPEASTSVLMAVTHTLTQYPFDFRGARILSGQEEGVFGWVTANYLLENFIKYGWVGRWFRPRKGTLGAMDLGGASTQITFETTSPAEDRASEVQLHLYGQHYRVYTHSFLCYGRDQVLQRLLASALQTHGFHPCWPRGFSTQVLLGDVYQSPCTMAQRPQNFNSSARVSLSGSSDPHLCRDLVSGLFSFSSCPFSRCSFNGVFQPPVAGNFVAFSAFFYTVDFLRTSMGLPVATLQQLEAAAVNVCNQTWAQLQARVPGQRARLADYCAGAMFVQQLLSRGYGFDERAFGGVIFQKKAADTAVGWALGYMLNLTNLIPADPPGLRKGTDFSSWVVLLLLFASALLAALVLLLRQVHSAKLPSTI
As to the kind of experiment: flow cytometry, NIH3T3 human ENTPD2 cells.

Assay [3] concerns the target T5, recombinant monomeric mouse ENTPD2 extracellular domain (residues 29-462) with His6 tag (mouse, UniProt O55026 29-462).
T5 sequence: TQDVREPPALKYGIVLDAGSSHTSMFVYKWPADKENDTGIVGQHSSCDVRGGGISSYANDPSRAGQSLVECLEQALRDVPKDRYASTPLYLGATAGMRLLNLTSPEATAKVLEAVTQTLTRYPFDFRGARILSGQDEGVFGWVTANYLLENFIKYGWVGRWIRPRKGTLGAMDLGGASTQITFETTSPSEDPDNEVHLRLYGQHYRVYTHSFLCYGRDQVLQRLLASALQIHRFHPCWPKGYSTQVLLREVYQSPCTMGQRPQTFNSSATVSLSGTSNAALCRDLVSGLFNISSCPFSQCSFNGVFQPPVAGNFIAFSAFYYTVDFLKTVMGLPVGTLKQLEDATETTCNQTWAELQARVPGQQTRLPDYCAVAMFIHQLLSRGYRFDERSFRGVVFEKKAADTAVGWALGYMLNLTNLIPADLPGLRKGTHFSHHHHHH
Kind of assay: SPR Biacore. In general terms: SPR reads the build-up and loss of mass on a sensor chip optically.

B1: ANTI-HUMAN ENTPD2 MAB4 (antibody, human IgG1, kappa, V domains shown)
VH: QIQLQESGPGLVKPSQTLSLTCTVSGYSITSGYYWNWIRQHPGKGLEWIGYISYDADNNYNPSLKNRVTISRDTSKNQFSLKLSSVTAADTAVYYCAGGYYRYGLGSYRGSYYYVMDYWGQGTTVTVSS
VL: ETVLTQSPATLSVSPGERATISCKASQSVDYEGHSYMNWYQQKPGQAPRLLIYAASNLESGIPARFSGSGSGTDFTLTISSVEPEDAATYYCQQSNEDPPTFGGGTKLEIKR
notes: humanized and optimized from mAb16; human IgG1, kappa; also called Anti-ENTPD2 mAb4
As to B1, the binding result with ENTPD3 of H520 cells is reported as “no binding (tested: 50 nM)”; with ENTPD8 of H520 cells it was “no binding (tested: 50 nM)”; in assay [3] it was “no binding”. Also, the EC50 amounted to 6.1 nM in assay [1] and 0.9 nM in assay [2].

B2: ANTI-HUMAN ENTPD2 MAB6 (antibody, human IgG1, kappa, V domains shown)
VH: QVQLQESGPGLVKPSQTLSLTCTVSGYSITSGYYWNWIRQHPGKGLEWMGYISYDADNNYNPSLKNRITISRDTSKNQFSLKLSSVTAADTAVYYCAGGYYRYGLGSYSGSYYYVMDYWGQGTTVTVSS
VL: DTQMTQSPSSLSVSVGDRATITCKASQSVDYEGHSYMNWYQQKPGKAPKLLIYAASNLESGVPSRFSGSGSGTDFTLTISSVQPEDFATYYCQQSNEDPPTFGGGTKLEIKR
notes: humanized and optimized from mAb16; human IgG1, kappa; also called Anti-ENTPD2 mAb6
Regarding B2, the binding result in the assay with ENTPD3 of H520 cells is “no binding (tested: 50 nM)”; in the assay with ENTPD8 of H520 cells, “no binding (tested: 50 nM)”; in assay [3], “no binding”. Also, the EC50 worked out at 7 nM in assay [1] and 0.9 nM in assay [2].

B3: ANTI-HUMAN ENTPD2 MAB5 (antibody, human IgG1, kappa, V domains shown)
VH: QIQLQESGPGLVKPSQTLSLTCTVSGYSITSGYYWNWIRQHPGKGLEWIGYISYDADNNYNPSLKNRVTISRDTSKNQFSLKLSSVTAADTAVYYCAGGYYRYGLGSYRGSYYYVMDYWGQGTTVTVSS
VL: ETVLTQSPATLSVSPGERATISCKASQSVDYDGNSYMNWYQQKPGQAPRLLIYAASNLESGIPARFSGSGSGTDFTLTISSVEPEDAATYYCQQSNEDPPTFGGGTKLEIKR
notes: humanized and optimized from mAb16; human IgG1, kappa; also called Anti-ENTPD2 mAb5
B3: the binding result is recorded as “no binding (tested: 50 nM)” in the assay with ENTPD3 of H520 cells, “no binding (tested: 50 nM)” with ENTPD8 of H520 cells and “no binding” in assay [3]. For the same molecule, the EC50 came to 5.2 nM in assay [1] and 0.9 nM in assay [2].

B4: ANTI-HUMAN ENTPD2 MAB8 (antibody, human IgG1, lambda, V domains shown)
VH: QVQLQQSGPGLVKPSQTLSLTCAISGDSVSSSSAAWNWIRQSPSRGLEWLGRIYYRSKWYNDYAVSVKSRITINPDTSKNQFSLQLNSVTPEDTAVYYCARGSYVTSSYEGFDYWGQGTLVTVSS
VL: SYELTQPLSVSVALGQTARITCSGDNLPEKYAYWYQQKPGQAPVLVIYDDNKRPSGIPERFSGSNSGNTATLTISRAQAGDEADYYCQSYGKWGWTWVFGGGTKLTVLG
notes: also called Anti-ENTPD2 mAb8
In the case of B4, the binding result in the assay with ENTPD3 of H520 cells is given as “no binding (tested: 50 nM)”; with ENTPD8 of H520 cells it was “no binding (tested: 50 nM)”; in assay [3] it was “binds”. The EC50 was 2.1 nM in assay [1] and 0.6 nM in assay [2].

B5: ANTI-HUMAN ENTPD2 MAB1 (antibody, human IgG1, kappa)
heavy: not shown
light: DIQLTQSPSSLSASVGDRVTITCSASSSVSYIHWFQQKPGKAPKLLIYSTSNLASGVPSRFSGSGSGTFFTLTISSLQPEDFATYFCHQWSSYPWTFGQGTKVEIKRTVAAPSVFIFPPSDEQLKSGTASVVCLLNNFYPREAKVQWKVDNALQSGNSQESVTEQDSKDSTYSLSSTLTLSKADYEKHKVYACEVTHQGLSSPVTKSFNRGEC
notes: humanized from mAb17; human IgG1, kappa; also called anti-ENTPD2 mAb1
B5: the binding result in the assay with ENTPD3 of H520 cells is “no binding (tested: 50 nM)”; in the assay with ENTPD8 of H520 cells it was “no binding (tested: 50 nM)”; in assay [3] it was “no binding”. The EC50 in assay [1] was 3.3 nM; in assay [2], 1.5 nM.

B6: ANTI-HUMAN ENTPD2 MAB2 (antibody, human IgG1, kappa)
heavy: not shown
light: EIVLTQSPATLSASPGERITLSCSASSSVSYIHWYQQKPGQAPRLLIYSTSNLASGIPARFSGSGSGTFYTLTISSVEPEDAAVYYCHQWSSYPWTFGGGTKLEIKRTVAAPSVFIFPPSDEQLKSGTASVVCLLNNFYPREAKVQWKVDNALQSGNSQESVTEQDSKDSTYSLSSTLTLSKADYEKHKVYACEVTHQGLSSPVTKSFNRGEC
notes: humanized from mAb17; human IgG1, kappa; also called Anti-ENTPD2 mAb2
B6: the binding result is “no binding (tested: 50 nM)” with ENTPD3 of H520 cells, “no binding (tested: 50 nM)” with ENTPD8 of H520 cells and “no binding” in assay [3]. Also, the concentration for a half-maximal effect (EC50) was 4.2 nM in assay [1] and 2.1 nM in assay [2].

B7: ANTI-HUMAN ENTPD2 MAB7 (antibody, human IgG1, kappa)
heavy: not shown
light: EIVLTQSPATLSASPGEEITLSCSASSSVSYIHWYQQKPGQAPRLLIYSTSNLASGIPARFSGSGSGTFYTLTISSVEPEDAAVYYCHQWSSYPWTFGGGTKLEIKRTVAAPSVFIFPPSDEQLKSGTASVVCLLNNFYPREAKVQWKVDNALQSGNSQESVTEQDSKDSTYSLSSTLTLSKADYEKHKVYACEVTHQGLSSPVTKSFNRGEC
notes: humanized from mAb17; human IgG1, kappa; also called Anti-ENTPD2 mAb7
B7: the binding result with ENTPD3 of H520 cells is reported as “no binding (tested: 50 nM)”; with ENTPD8 of H520 cells, “no binding (tested: 50 nM)”; in assay [3], “no binding”. For the same molecule, the results for the EC50 in assay [1] and in assay [2] were 0.8 nM and 0.5 nM, respectively.

B8: ANTI-HUMAN ENTPD2 MAB3 (antibody, human IgG1, kappa, V domains shown)
VH: QVQLVQSGAEVVKPGASVKISCKASGYTFTDYNMDWVKQAPGQRLEWIGDINPKYDISTYNQQFKGKATITVDTSASTAYMELSSLRSEDTAVYYCARRGFFLYYGINYYYFDVWGQGTLVTVSS
VL: EIVLTQSPATLSASPGERITLSCSASSSVSYIHWYQQKPGQAPRLLIYSTSNLASGIPARFSGSGSGTFYTLTISSVEPEDAAVYYCHQWSSYPWTFGGGTKLEIKR
notes: humanized from mAb17; human IgG1, kappa; also called Anti-ENTPD2 mAb3
As for B8, the binding result with ENTPD3 of H520 cells is reported as “no binding (tested: 50 nM)”; in the assay with ENTPD8 of H520 cells, “no binding (tested: 50 nM)”; in assay [3] it was “no binding”. Further, the EC50 in assay [1] came to 5.4 nM; in assay [2], 2.8 nM.

By EC50 is commonly meant the midpoint of the concentration-response curve. Read a high EC50 as weaker potency.
